Changes are numbered by the printed parent chain.

Common to all, as to assay: co-immunoprecipitation of ALFA-TXNIP, label-free quantitative interactome (mass spectrometry)
For experiment [1], the target named is T1, NEDD4L, endogenous in HEK293T, Q96PU5.
T1 chain: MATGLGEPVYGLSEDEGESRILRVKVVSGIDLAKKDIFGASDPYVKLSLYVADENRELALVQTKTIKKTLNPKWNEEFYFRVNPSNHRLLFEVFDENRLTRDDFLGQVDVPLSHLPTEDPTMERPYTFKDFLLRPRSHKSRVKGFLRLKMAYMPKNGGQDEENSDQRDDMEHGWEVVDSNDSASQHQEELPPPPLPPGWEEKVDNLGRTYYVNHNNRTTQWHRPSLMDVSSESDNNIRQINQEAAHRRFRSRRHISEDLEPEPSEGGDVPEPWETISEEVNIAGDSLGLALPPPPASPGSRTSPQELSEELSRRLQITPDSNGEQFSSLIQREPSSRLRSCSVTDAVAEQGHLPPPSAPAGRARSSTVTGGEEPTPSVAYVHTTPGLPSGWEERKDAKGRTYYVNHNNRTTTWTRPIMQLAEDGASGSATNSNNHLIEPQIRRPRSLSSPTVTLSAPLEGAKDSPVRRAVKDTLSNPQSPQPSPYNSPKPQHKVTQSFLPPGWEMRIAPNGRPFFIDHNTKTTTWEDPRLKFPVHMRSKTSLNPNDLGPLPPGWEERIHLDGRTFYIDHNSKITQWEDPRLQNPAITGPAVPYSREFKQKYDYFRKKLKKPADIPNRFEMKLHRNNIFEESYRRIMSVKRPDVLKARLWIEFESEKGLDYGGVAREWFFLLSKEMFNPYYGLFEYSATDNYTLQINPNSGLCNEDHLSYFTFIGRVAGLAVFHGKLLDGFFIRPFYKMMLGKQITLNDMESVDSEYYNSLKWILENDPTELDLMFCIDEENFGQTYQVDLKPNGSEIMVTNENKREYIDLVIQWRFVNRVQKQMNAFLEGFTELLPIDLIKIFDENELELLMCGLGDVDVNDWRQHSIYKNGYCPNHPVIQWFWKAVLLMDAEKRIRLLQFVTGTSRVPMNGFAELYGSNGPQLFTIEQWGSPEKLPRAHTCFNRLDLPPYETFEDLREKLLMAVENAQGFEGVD
The note with it: chain shown with the change, immunoprecipitated from HEK293T cells, n = 3, read off a plot; for response: histogram, parent: est. 1.1e10.

Experiment [2] concerns the target WWP1, endogenous in HEK293T, Q9H0M0. Conditions: chain shown with the change, immunoprecipitated from HEK293T cells, n = 3, read off a plot; for response (normalized abundance): abundances normalized to unspecific background binding to empty beads, scatter plot.
Experiment [3] addresses ITCH, endogenous in HEK293T, Q96J02. The note with it: chain shown with the change, immunoprecipitated from HEK293T cells, n = 3, read off a plot; for response (normalized abundance): abundances normalized to unspecific background binding to empty beads, scatter plot.
For experiment [4], the target named is WWP2, endogenous in HEK293T, O00308. Conditions: chain shown with the change, immunoprecipitated from HEK293T cells, n = 3, read off a plot; for response (normalized abundance): abundances normalized to unspecific background binding to empty beads, scatter plot.
WWP2, endogenous in HEK293T, O00308, sequence (O00308 whole entry): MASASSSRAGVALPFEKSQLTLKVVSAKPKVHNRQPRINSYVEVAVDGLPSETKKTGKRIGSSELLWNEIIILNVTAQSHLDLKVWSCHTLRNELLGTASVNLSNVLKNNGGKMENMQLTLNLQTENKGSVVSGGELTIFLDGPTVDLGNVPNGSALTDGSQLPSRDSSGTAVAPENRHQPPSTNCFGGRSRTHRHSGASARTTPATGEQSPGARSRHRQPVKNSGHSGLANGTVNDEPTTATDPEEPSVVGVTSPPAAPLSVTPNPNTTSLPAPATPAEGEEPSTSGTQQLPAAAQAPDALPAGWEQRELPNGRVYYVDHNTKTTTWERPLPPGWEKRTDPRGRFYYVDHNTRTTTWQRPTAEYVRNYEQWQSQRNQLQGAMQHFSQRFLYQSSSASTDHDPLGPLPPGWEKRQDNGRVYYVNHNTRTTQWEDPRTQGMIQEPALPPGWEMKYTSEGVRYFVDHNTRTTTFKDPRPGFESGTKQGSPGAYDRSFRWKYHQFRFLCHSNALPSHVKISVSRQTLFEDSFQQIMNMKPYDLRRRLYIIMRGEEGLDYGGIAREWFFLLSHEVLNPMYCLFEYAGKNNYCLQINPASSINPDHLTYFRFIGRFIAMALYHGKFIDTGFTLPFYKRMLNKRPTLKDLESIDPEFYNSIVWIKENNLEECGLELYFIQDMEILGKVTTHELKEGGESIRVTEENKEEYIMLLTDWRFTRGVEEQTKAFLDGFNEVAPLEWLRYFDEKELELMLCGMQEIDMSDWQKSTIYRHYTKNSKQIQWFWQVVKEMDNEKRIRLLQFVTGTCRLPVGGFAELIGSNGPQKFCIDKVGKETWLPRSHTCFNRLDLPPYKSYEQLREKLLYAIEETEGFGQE
[5] abbreviates: abundances normalized to unspecific background binding to empty beads.

ITCH, endogenous in HEK293T, Q96J02, sequence (Q96J02 whole entry): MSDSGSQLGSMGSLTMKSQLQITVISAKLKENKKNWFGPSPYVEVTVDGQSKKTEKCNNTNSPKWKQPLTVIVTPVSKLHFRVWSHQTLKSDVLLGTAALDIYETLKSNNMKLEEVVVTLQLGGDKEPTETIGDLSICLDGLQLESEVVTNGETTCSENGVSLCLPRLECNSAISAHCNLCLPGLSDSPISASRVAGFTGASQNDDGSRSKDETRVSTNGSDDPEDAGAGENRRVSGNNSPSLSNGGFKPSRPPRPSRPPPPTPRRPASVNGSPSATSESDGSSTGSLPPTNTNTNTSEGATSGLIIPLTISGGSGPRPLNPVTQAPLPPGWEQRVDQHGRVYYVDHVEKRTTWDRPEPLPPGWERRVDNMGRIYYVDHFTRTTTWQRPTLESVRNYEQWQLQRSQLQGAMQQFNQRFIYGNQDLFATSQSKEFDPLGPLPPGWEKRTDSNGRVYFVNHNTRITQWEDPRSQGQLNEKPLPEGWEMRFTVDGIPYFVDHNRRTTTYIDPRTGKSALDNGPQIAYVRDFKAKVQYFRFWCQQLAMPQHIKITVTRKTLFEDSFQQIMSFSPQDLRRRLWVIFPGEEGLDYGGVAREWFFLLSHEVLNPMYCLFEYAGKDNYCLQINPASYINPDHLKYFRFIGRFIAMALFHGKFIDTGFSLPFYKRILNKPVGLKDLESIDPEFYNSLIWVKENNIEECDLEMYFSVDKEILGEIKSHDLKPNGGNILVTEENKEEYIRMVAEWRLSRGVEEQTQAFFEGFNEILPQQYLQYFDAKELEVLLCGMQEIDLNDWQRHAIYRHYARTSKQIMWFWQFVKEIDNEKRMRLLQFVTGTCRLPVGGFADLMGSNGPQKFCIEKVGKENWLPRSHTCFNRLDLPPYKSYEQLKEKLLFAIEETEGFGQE

B1: ALFA-tagged TXNIP (thioredoxin interacting protein), expressed in HEK293T, Q9H3M7 PPCY331AACA (protein)
chain: MVMFKKIKSFEVVFNDPEKVYGSGEKVAGRVIVEVCEVTRVKAVRILACGVAKVLWMQGSQQCKQTSEYLRYEDTLLLEDQPTGENEMVIMRPGNKYEYKFGFELPQGPLGTSFKGKYGCVDYWVKAFLDRPSQPTQETKKNFEVVDLVDVNTPDLMAPVSAKKEKKVSCMFIPDGRVSVSARIDRKGFCEGDEISIHADFENTCSRIVVPKAAIVARHTYLANGQTKVLTQKLSSVRGNHIISGTCASWRGKSLRVQKIRPSILGCNILRVEYSLLIYVSVPGSKKVILDLPLVIGSRSGLSSRTSSMASRTSSEMSWVDLNIPDTPEAAACAMDVIPEDHRLESPTTPLLDDMDGSQDSPIFMYAPEFKFMPPPTYTEVDPCILNNNVQ
As to B1, the response in experiment [1] (setting [5]) is 6.6e+09 abundance. The other: log2 PPxY331/WT was -0.7 log2 in experiment [1], -1.5 log2 in experiment [2], -1.1 log2 in experiment [3] and -1.8 log2 in experiment [4]. Further, the results for the response (normalized abundance) in experiment [2] (parent: est. 3.2e8), in experiment [3] (parent: est. 3.0e8) and in experiment [4] (parent: est. 1.4e9) were 8.5e+07, 1.5e+08 and 4.5e+08, respectively.

B2: ALFA-tagged TXNIP (thioredoxin interacting protein), expressed in HEK293T, Q9H3M7 PPCY331AACA; PPTY375AATA (protein)
chain: B1 chain with P375A, P376A, Y378A
For B2, the response in experiment [1] (setting [5]) is 3.8e+09 abundance. Moreover, the response (normalized abundance) was 4e+09 in experiment [1] (abundances normalized to unspecific background binding to empty beads, scatter plot, parent: est. 1.0e10); 1.6e+06 in experiment [2] (parent: est. 3.5e8); 150000 in experiment [3] (parent: est. 3.5e8); 800000 in experiment [4] (parent: est. 1.3e9). In addition, the other: log2 PPxY/WT is -1.5 log2 in experiment [1] (volcano plot), -3 log2 in experiment [2] (volcano plot) and -4.5 log2 in experiment [3] (volcano plot).

(Values after article PMC12669767.)
